Results: patent US20240100181A1 (AbbVie / Abbott, published 2024)
Values belong to the binder of their own block, whether it stands above or below them.

Columns and labels:
[1] = biological target: T1, human CD19 (human, UniProt P15391 20-556); experiment: cell-based or functional assay
T1 sequence (looked up): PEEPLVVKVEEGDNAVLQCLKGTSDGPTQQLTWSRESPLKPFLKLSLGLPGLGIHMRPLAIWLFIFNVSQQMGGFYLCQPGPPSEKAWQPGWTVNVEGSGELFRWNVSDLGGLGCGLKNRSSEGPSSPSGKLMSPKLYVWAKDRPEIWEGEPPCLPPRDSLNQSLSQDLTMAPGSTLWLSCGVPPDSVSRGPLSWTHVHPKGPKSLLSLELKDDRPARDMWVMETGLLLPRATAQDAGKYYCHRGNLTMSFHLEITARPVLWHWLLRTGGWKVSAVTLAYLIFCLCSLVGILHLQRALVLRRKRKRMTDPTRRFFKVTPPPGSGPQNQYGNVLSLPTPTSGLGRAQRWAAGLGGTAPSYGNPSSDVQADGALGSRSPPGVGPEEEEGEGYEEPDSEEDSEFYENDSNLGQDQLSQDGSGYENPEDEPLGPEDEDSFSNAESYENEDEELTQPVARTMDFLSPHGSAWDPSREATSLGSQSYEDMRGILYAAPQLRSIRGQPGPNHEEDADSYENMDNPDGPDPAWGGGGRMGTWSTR

[2] = biological target: FcγRIIIa V158 variant (high-affinity allotype) (human, UniProt P08637 17-254); experiment: cell-based or functional assay
FcγRIIIa V158 variant (high-affinity allotype), sequence (P08637 other isoform, or with tags, fused parts or gaps mutant limits assumed): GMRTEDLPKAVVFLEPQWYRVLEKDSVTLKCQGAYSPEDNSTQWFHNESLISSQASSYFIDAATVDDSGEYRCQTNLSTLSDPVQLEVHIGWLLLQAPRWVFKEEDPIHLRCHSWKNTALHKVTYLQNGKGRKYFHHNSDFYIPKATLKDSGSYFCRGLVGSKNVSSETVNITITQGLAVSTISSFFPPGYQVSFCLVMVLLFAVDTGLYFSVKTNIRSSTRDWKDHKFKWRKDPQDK

[3] = biological target: FcγRIIIa F158 variant (low-affinity allotype) (human, UniProt P08637 17-254); experiment: cell-based or functional assay
FcγRIIIa F158 variant (low-affinity allotype), sequence (P08637 17-254, change not shown): as the sequence (P08637 other isoform, or with tags, fused parts or gaps mutant limits assumed) above, with V160F counted along it

[4] = biological target: T1, human CD19; experiment: cell-based or functional assay; remark: listed apart in the source
[5] = biological target: T1, human CD19; experiment: flow cytometry on Raji (BL) cells, endogenous CD19; average of two experiments
[6] = biological target: T1, human CD19; experiment: flow cytometry on RS4; 11 (ALL) cells, endogenous CD19; average of two experiments
[7] = biological target: T1, human CD19; experiment: flow cytometry on SUP-B15 (ALL) cells, endogenous CD19; average of two experiments
[8] = biological target: T1, human CD19; experiment: flow cytometry on OCI-LY19 (DLBCL) cells, endogenous CD19; average of two experiments

PBMC co-culture ADCC, specific lysis EC50 (RS4; 11, Raji, KARPAS422) [1]: 0.07 to 0.142 nM
ADCC NFAT reporter activation (Jurkat reporter cells, Raji target cells) [2]: 0.017 nM
ADCC NFAT reporter activation (Jurkat reporter cells, Raji target cells) [3]: 0.018 nM
anti-proliferative assay EC50, KARPAS422 (DLBCL) [4]: 0.21 nM
anti-proliferative assay EC50, OCI-LY19 (DLBCL) [4]: 103 nM
anti-proliferative assay EC50, RS4; 11 (ALL) [4]: 0.082 nM
anti-proliferative assay EC50, SU-DHL-6 (DLBCL) [4]: 0.311 nM
anti-proliferative assay EC50, SUP-B15 (ALL) [4]: 0.321 nM
B1: ADC-1 (CD19 Phosphorylated GRM agonist ADC: CD19 mAb conjugated to the drug linker of Formula V) (other)
heavy: EVQLVESGGGLVQPGGSLRLSCAASGFTFTTYWINWVRQAPGKGLEWIGNIYPSDSYTNYNQKFKDRATLSVDKSKNTAYLQMNSLRAEDTAVYYCTREDYYGSSSYYAMDYWGQGTLVTVSSASTKGPSVFPLAPSSKSTSGGTAALGCLVKDYFPEPVTVSWNSGALTSGVHTFPAVLQSSGLYSLSSVVTVPSSSLGTQTYICNVNHKPSNTKVDKKVEPKSCDKTHTCPPCPAPELLGGPSVFLFPPKPKDTLMISRTPEVTCVVVDVSHEDPEVKFNWYVDGVEVHNAKTKPREEQYNGSTYRVVSVLTVLHQDWLNGKEYKCKVSNKALPAPIEKTISKAKGQPREPQVYTLPPSREEMTKNQVSLTCLVKGFYPSDIAVEWESNGQPENNYKTTPPVLDSDGSFFLYSKLTVDKSRWQQGNVFSCSVMHEALHNHYTQKSLSLSPGK
light: AILMTQSPSSLSASVGDRVTITCKASQDVGTAVAWYQQKPGKAPKLLIYWASTRHTGVPSRFSGSGSGTDFTLTISSLQPEDFATYYCQQYSTYPLTFGQGTKVEIKRTVAAPSVFIFPPSDEQLKSGTASVVCLLNNFYPREAKVQWKVDNALQSGNSQESVTEQDSKDSTYSLSSTLTLSKADYEKHKVYACEVTHQGLSSPVTKSFNRGEC
modifications: zero or one phosphate-GRM drug linker molecule (Formula V) attached via cysteine -S-; cysteine position not stated; afucosylated at ASN-300 (EU: ASN-297); zero, one, two or three phosphate-GRM drug linker molecules (Formula V, Ala-Ala linker) attached via cysteine -S-; cysteine positions not stated

ADCC NFAT reporter activation (Jurkat reporter cells, Raji target cells) [2]: 0.027 nM
ADCC NFAT reporter activation (Jurkat reporter cells, Raji target cells) [3]: 0.023 nM
EC50 [5]: 0.713 nM
EC50 [6]: 0.401 nM
EC50 [7]: 0.683 nM
EC50 [8]: 0.836 nM
B2: CD19 mAb (humanized, afucosylated anti-CD19 IgG1 kappa monoclonal antibody of Example 1) (antibody)
heavy: B1 heavy
light: B1 light
modifications: afucosylated N-glycan at ASN-300 (EU: ASN-297), greater than or equal to 90% afucosylated
notes: Human IgG1, kappa; Made in CHO cells expressing Pseudomonas RMD; also called CD19 antibody; humanized anti-CD19 antibody
